Assay results from patent publication US20240024414.

Target: L7Ae (50S ribosomal protein L7Ae, L30 family, RBP11) (Archaeoglobus fulgidus) (UniProt O29494)
Assay: pulldown
Conditions: RIP-Seq enrichment, may be indirect

L7Ae (50S ribosomal protein L7Ae, L30 family, RBP11) (Archaeoglobus fulgidus), sequence (O29494 whole entry): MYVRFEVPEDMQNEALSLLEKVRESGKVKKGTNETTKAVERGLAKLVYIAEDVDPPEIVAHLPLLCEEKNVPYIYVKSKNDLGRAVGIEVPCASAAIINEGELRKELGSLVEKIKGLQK

Substance	binding signal (log2 fold change)
SNORA62 RNA	3.32
SNORA79B RNA	3.28
SNORA73B RNA	4.08
FAM69A RNA	4.98
NPM1 RNA	3.22
